Literature values, collected in paper PMC7465696.

Biological target: HP1β CSD (Homo sapiens) (UniProt P83916)
Experiment: sedimentation analysis

## HP1β CSD (from UniProt P83916)
  Kd: < 150 nM
